In patent US20220073646A1 (Hoffmann-La Roche, published 2022):
Blank lines part the entries; values can stand above or below the binder they belong to.

Assays:
[1] = target: T1, human 4-1BB on cells (human, UniProt Q07011 24-255); assay: cell-based or functional assay
[2] = target: mouse 4-1BB on activated mouse splenocytes (mouse, UniProt P20334 24-256); assay: flow cytometry, activated mouse T cells
Protocol: Cells were incubated for 30 min at 4° C., washed twice with 200 μL/well FACS-buffer and resuspended for fixation with 50 μL/well DPBS containing 1% (v/v) formaldehyde. The next day cells were resuspended in 200 μL/well FACS buffer and acquired using the 2-laser Cantoll (BD Bioscience with DIVA software) or 5-laser Fortessa (BD Bioscience with DIVA software). Gates were set on CD8⁺ and CD4⁺ T cells and the median fluorescence intensity (MFI) of the secondary detection antibody was used to analyze binding of primary antibodies. Using Graph Pad Prism (Graph Pad Software Inc.) data was baselined by subtracting the blank values (no primary antibody added) and the EC₅₀ values were calculated using non-linear regression curve fit (robust fit).

[3] = target: T2, cynomolgus 4-1BB on activated cynomolgus PBMC (cynomolgus, UniProt Q07011 24-255 (human entry)); assay: flow cytometry, activated cynomolgus CD4 T cells
T2 chain: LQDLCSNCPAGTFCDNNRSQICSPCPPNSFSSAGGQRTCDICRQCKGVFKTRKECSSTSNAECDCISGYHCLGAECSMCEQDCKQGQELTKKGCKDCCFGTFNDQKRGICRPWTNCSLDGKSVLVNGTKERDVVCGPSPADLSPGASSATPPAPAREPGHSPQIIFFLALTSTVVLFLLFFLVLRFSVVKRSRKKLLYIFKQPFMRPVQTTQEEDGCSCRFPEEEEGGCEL
Protocol: (§1) Cells were washed twice with FACS buffer and resuspended in 100 μL/well FACS buffer supplied with 0.2 μg/mL DAPI to discriminated dead from living cells. Cells were immediately acquired using a 5-laser Fortessa (BD Bioscience with DIVA software). Gates were set on CD8⁺ and CD4⁺ T cells and the median fluorescence intensity (MFI) of the secondary detection antibody was used to analyze binding of primary antibodies. Using Graph Pad Prism (Graph Pad Software Inc.) data was baselined by subtracting the blank values (no primary antibody added) and the EC₅₀ values were calculated using non-linear regression curve fit (robust fit).

[4] = target: T2, cynomolgus 4-1BB on activated …; assay: flow cytometry, activated cynomolgus CD8 T cells
Protocol: as §1

[5] = target: recombinant cynomolgus 4-1BB Fc(kih) (cynomolgus, UniProt P0DOX5 223-449 = IgG part, biotin on C-terminal Avi tag where used biotinylated); assay: SPR, captured IgG, cyno 4-1BB Fc(kih) analyte
Protocol: (§2) All SPR experiments were performed on a Biacore T200 at 25° C. with HBS-EP as running buffer (0.01 M HEPES pH 7.4, 0.15 M NaCl, 3 mM EDTA, 0.005% Surfactant P20, Biacore, Freiburg/Germany).
Anti-human Fab antibody (Biacore, Freiburg/Germany) was directly coupled on a CM5 chip at pH 5.0 using the standard amine coupling kit (Biacore, Freiburg/Germany). The immobilization level was approximately 9000 RU.

[6] = target: T1, human 4-1BB on cells; assay: flow cytometry, activated human CD8 T cells
Protocol: Plates were centrifuged 4 minutes with 400×g at 4° C. and supernatant was discarded. […] Afterwards cells were washed once with 200 μL/well cold FACS buffer (DPBS supplied with 2% (v/v) FBS, 5 mM EDTA pH8 (Amresco, Cat. No. E177) and 7.5 mM sodium azide (Sigma-Aldrich S2002)). […] Cells were washed four times with 200 μL/well 4° C.
Cells were washed twice with 200 μL FACS buffer/well and fixated by resuspending in 50 μL/well DPBS containing 1% Formaldehyde (Sigma, HT501320-9.5L). Cells were acquired the same or next day using a 3-laser Canto II (BD Bioscience with DIVA software) or a 5-laser Fortessa (BD Bioscience with DIVA software) or 3-laser MACSQuant Analyzer 10 (Miltenyi Biotech). Gates were set on CD8⁺ and CD4⁺ T cells and the median fluorescence intensity (MFI) or geo mean of fluorescence intensity of the secondary detection antibody was used to analyze binding of primary antibodies. Using Graph Pad Prism (Graph Pad Software Inc.) data was baselined by subtracting the blank values (no primary antibody added) and the EC50 values were calculated using non-linear regression curve fit (robust fit).

[7] = target: T3, recombinant human 4-1BB Fc(kih) (human, UniProt P0DOX5 223-449 = IgG part, biotin on C-terminal Avi tag where used biotinylated); assay: SPR, captured IgG, 4-1BB Fc(kih) analyte
T3 construct: also called hu4-1BB; biotinylated human 4-1BB
Protocol: as §2
Anti-human Fab antibody (Biacore, Freiburg/Germany) was directly coupled on a CM5 chip at pH 5.0 using the standard amine coupling kit (Biacore, Freiburg/Germany). The immobilization level was approximately 7500 RU. […] The dissociation was monitored for 120 seconds. Bulk refractive index differences were corrected for by subtracting the response obtained on reference flow cell.

[8] = target: T4, human GITR on HEK cells (HEK-GITR) (human, UniProt Q9Y5U5 26-241); assay: flow cytometry, HEK-GITR
T4 construct: also called cell surface expressed human GITR
T4 sequence: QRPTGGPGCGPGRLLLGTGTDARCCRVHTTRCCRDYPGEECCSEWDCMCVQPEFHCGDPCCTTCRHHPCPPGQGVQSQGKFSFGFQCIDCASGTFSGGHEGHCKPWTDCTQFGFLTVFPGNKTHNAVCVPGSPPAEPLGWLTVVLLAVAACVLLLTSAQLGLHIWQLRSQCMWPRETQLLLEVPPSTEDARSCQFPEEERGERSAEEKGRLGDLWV
Protocol: Cells were washed twice with complete media and once with PBS+2% FBS before adjusting cell density to 1×10⁷ cells/mL in PBS+2% FBS.
Plates were centrifuged at 4° C., 3 minutes at 600×g and supernatant was flicked off. Cells were resuspended in 50 μL/well of 4° C. cold PBS+2% FBS containing titrated anti-GITR antibody constructs for 120 minutes at 4° C. Plates were washed twice with 200 μL/well 4° C. PBS+2% FBS to remove unbound construct. […] Plates were centrifuged at 4° C. for 3 minutes at 600×g and washed twice with PBS+2% FBS. […] Plates were centrifuged at 4° C., 3 minutes at 600×g and supernatant was flicked off.

[9] = target: T1, human 4-1BB on cells; assay: cell-based or functional assay; remark: listed apart in the source
[10] = target: T5, human fibroblast activation protein (huFAP) on cells (human, UniProt Q12884 1-760); assay: flow cytometry, WM266-4
T5 construct: also called NIH/3T3-huFAP clone 39; NIH/3T3-huFAP clone 19

[11] = target: T6, human OX40 on cells (human, UniProt P43489 29-277); assay: flow cytometry, activated human CD4 T cells
T6 sequence: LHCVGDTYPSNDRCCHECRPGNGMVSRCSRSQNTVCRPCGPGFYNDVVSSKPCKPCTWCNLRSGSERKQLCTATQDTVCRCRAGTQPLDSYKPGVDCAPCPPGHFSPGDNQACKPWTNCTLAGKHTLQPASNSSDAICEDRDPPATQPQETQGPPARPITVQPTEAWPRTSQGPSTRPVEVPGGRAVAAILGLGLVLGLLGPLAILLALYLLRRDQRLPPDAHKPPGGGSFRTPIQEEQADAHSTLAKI

mouse 4-1BB on activated mouse splenocytes, sequence (P20334 24-256 limits assumed): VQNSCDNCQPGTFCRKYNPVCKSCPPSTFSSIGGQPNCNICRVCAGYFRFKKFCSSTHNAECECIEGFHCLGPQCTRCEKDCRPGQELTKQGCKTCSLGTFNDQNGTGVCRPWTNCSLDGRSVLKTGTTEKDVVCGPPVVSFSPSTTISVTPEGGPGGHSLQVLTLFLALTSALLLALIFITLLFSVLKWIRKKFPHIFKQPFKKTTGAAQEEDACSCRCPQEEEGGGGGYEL

EC50 of increase of IFNγ secretion in activated CD8+ T cells (surface-immobilized IgG) [1]: 0.12 nM
binding result [2]: no binding
EC50 [3]: 6.68 nM
EC50 [4]: 4.52 nM
Kd [5]: 17 nM
koff [5]: 0.00046 s⁻¹
kon [5]: 27000 M⁻¹ s⁻¹
EC50 [6]: 29 nM
Kd [7]: 34 nM
koff [7]: 0.00099 s⁻¹
kon [7]: 29000 M⁻¹ s⁻¹
B1: 25G7 P329GLALA IgG1 (antibody, V domains shown)
VH: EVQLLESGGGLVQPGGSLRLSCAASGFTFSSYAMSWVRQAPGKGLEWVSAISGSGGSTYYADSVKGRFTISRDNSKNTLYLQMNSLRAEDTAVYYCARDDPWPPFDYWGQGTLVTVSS
VL: SSELTQDPAVSVALGQTVRITCQGDSLRSYYASWYQQKPGQAPVLVIYGKNNRPSGIPDRFSGSSSGNTASLTITGAQAEDEADYYCNSLDRRGMWVFGGGTKLTVLG
notes: anti-4-1BB; also called 25G7 IgG

EC50 [8]: 1.92 nM
B2: (GITR-DP47) [8A06] 4+1 construct with charged residues (bispecific antibody, V domains shown)
VH: QVQLVQSGAEVKKPGSSVKVSCKASGGTFSSYAISWVRQAPGQGLEWMGGIIPIFGTANYAQKFQGRVTITADKSTSTAYMELSSLRSEDTAVYYCARGYYAIDYWGQGTTVTVSS
VL: SSELTQDPAVSVALGQTVRITCQGDSLRSYYASWYQQKPGQAPVLVIYGKNNRPSGIPDRFSGSSSGNTASLTITGAQAEDEADYYCNSPQTSGSAVFGGGTKLTVL

EC50 [8]: 2.06 nM
B3: (GITR-FAP) [8A06] 4+2 construct with charged residues (bispecific antibody, V domains shown)
VH 1: QVQLVQSGAEVKKPGSSVKVSCKASGGTFSSYAISWVRQAPGQGLEWMGGIIPIFGTANYAQKFQGRVTITADKSTSTAYMELSSLRSEDTAVYYCARGYYAIDYWGQGTTVTVSS
VL 1: SSELTQDPAVSVALGQTVRITCQGDSLRSYYASWYQQKPGQAPVLVIYGKNNRPSGIPDRFSGSSSGNTASLTITGAQAEDEADYYCNSPQTSGSAVFGGGTKLTVL
VH 2: EVQLLESGGGLVQPGGSLRLSCAASGFTFSSHAMSWVRQAPGKGLEWVSAIWASGEQYYADSVKGRFTISRDNSKNTLYLQMNSLRAEDTAVYYCAKGWLGNFDYWGQGTLVTVSS
VL 2: EIVLTQSPGTLSLSPGERATLSCRASQSVSRSYLAWYQQKPGQAPRLLIIGASTRATGIPDRFSGSGSGTDFTLTISRLEPEDFAVYYCQQGQVIPPTFGQGTKVEIK
notes: human IgG1 P329G LALA; also called 4+2 CR

EC50 of NFκB/luciferase activation, 4-1BB reporter HeLa with NIH/3T3-huFAP clone 19 [9]: 3.2 nM
B4: 25G7/FAP P329GLALA IgG1 1+1 (bispecific antibody)
heavy 1: not shown
light 1: SSELTQDPAVSVALGQTVRITCQGDSLRSYYASWYQQKPGQAPVLVIYGKNNRPSGIPDRFSGSSSGNTASLTITGAQAEDEADYYCNSLDRRGMWVFGGGTKLTVLGQPKAAPSVTLFPPSSEELQANKATLVCLISDFYPGAVTVAWKADSSPVKAGVETTTPSKQSNNKYAASSYLSLTPEQWKSHRSYSCQVTHEGSTVEKTVAPTECS
heavy 2: EVQLLESGGGLVQPGGSLRLSCAASGFTFSSHAMSWVRQAPGKGLEWVSAIWASGEQYYADSVKGRFTISRDNSKNTLYLQMNSLRAEDTAVYYCAKGWLGNFDYWGQGTLVTVSSASVAAPSVFIFPPSDEQLKSGTASVVCLLNNFYPREAKVQWKVDNALQSGNSQESVTEQDSKDSTYSLSSTLTLSKADYEKHKVYACEVTHQGLSSPVTKSFNRGECDKTHTCPPCPAPEAAGGPSVFLFPPKPKDTLMISRTPEVTCVVVDVSHEDPEVKFNWYVDGVEVHNAKTKPREEQYNSTYRVVSVLTVLHQDWLNGKEYKCKVSNKALGAPIEKTISKAKGQPREPQVCTLPPSRDELTKNQVSLSCAVKGFYPSDIAVEWESNGQPENNYKTTPPVLDSDGSFFLVSKLTVDKSRWQQGNVFSCSVMHEALHNHYTQKSLSLSPGK
light 2: EIVLTQSPGTLSLSPGERATLSCRASQSVSRSYLAWYQQKPGQAPRLLIIGASTRATGIPDRFSGSGSGTDFTLTISRLEPEDFAVYYCQQGQVIPPTFGQGTKVEIKSSASTKGPSVFPLAPSSKSTSGGTAALGCLVKDYFPEPVTVSWNSGALTSGVHTFPAVLQSSGLYSLSSVVTVPSSSLGTQTYICNVNHKPSNTKVDKKVEPKSCD

EC50 of NFκB/luciferase activation, 4-1BB reporter HeLa with NIH/3T3-huFAP clone 19 [9]: 0.05 nM
B5: 25G7/FAP P329GLALA IgG1 2+2 (bispecific antibody)
heavy: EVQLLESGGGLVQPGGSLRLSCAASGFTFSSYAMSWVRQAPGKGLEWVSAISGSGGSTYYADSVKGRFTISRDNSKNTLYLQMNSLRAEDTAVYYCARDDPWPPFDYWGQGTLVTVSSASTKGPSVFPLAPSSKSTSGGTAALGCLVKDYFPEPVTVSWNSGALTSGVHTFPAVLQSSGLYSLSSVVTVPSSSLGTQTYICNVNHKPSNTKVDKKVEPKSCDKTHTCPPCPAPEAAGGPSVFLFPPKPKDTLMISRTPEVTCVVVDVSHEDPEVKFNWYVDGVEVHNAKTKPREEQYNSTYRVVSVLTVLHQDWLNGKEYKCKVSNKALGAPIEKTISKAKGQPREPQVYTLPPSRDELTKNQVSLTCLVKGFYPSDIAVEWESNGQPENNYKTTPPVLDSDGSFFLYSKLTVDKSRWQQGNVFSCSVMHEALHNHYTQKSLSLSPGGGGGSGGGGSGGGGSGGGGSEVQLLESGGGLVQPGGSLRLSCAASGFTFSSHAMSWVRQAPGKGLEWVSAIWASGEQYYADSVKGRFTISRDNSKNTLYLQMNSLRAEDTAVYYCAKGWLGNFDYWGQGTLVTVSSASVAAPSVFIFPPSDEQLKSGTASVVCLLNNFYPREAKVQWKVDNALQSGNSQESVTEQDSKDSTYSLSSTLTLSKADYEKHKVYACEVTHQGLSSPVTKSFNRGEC
light 1: SSELTQDPAVSVALGQTVRITCQGDSLRSYYASWYQQKPGQAPVLVIYGKNNRPSGIPDRFSGSSSGNTASLTITGAQAEDEADYYCNSLDRRGMWVFGGGTKLTVLGQPKAAPSVTLFPPSSEELQANKATLVCLISDFYPGAVTVAWKADSSPVKAGVETTTPSKQSNNKYAASSYLSLTPEQWKSHRSYSCQVTHEGSTVEKTVAPTECS
light 2: EIVLTQSPGTLSLSPGERATLSCRASQSVSRSYLAWYQQKPGQAPRLLIIGASTRATGIPDRFSGSGSGTDFTLTISRLEPEDFAVYYCQQGQVIPPTFGQGTKVEIKSSASTKGPSVFPLAPSSKSTSGGTAALGCLVKDYFPEPVTVSWNSGALTSGVHTFPAVLQSSGLYSLSSVVTVPSSSLGTQTYICNVNHKPSNTKVDKKVEPKSCD

EC50 of NFκB/luciferase activation, 4-1BB reporter HeLa with NIH/3T3-huFAP clone 19 [9]: 0.04 nM
EC50 of NFκB/luciferase activation, 4-1BB reporter HeLa with WM-266-4 [9]: 0.2 nM
B6: 4-1BB(25G7)/FAP(4B9) 4+1 (bispecific antibody, human IgG1, lambda, L234A L235A)
heavy 1: not shown
heavy 2: not shown
light: SSELTQDPAVSVALGQTVRITCQGDSLRSYYASWYQQKPGQAPVLVIYGKNNRPSGIPDRFSGSSSGNTASLTITGAQAEDEADYYCNSLDRRGMWVFGGGTKLTVLGQPKAAPSVTLFPPSSEELQANKATLVCLISDFYPGAVTVAWKADSSPVKAGVETTTPSKQSNNKYAASSYLSLTPEQWKSHRSYSCQVTHEGSTVEKTVAPTECS

EC50 of NFκB/luciferase activation, 4-1BB reporter HeLa with NIH/3T3-huFAP clone 19 [9]: 0.05 nM
B7: 11D5/FAP P329GLALA IgG1 2+2 (bispecific antibody)
heavy: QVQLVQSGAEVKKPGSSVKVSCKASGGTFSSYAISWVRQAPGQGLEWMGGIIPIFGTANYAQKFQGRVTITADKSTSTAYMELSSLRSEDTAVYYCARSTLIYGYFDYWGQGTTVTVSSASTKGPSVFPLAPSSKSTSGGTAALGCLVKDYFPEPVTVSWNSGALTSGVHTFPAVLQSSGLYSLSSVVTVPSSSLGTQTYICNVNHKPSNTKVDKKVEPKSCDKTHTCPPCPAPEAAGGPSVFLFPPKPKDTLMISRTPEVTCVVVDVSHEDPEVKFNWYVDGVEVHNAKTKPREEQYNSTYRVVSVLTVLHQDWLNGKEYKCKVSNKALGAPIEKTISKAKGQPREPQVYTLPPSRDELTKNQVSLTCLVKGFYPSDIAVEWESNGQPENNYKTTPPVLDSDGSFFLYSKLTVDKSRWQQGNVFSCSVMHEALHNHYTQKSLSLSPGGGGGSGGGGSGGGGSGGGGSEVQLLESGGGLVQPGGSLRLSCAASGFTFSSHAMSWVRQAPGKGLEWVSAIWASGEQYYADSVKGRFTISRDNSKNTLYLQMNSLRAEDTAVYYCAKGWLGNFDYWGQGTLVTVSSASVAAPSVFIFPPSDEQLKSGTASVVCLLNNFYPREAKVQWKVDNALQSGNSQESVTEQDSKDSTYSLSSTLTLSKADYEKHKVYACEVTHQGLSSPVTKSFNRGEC
light 1: not shown
light 2: EIVLTQSPGTLSLSPGERATLSCRASQSVSRSYLAWYQQKPGQAPRLLIIGASTRATGIPDRFSGSGSGTDFTLTISRLEPEDFAVYYCQQGQVIPPTFGQGTKVEIKSSASTKGPSVFPLAPSSKSTSGGTAALGCLVKDYFPEPVTVSWNSGALTSGVHTFPAVLQSSGLYSLSSVVTVPSSSLGTQTYICNVNHKPSNTKVDKKVEPKSCD

EC50 [10]: 1.31 nM
B8: 49B4/FAP P329GLALA IgG1 2+2 (bispecific antibody)
heavy: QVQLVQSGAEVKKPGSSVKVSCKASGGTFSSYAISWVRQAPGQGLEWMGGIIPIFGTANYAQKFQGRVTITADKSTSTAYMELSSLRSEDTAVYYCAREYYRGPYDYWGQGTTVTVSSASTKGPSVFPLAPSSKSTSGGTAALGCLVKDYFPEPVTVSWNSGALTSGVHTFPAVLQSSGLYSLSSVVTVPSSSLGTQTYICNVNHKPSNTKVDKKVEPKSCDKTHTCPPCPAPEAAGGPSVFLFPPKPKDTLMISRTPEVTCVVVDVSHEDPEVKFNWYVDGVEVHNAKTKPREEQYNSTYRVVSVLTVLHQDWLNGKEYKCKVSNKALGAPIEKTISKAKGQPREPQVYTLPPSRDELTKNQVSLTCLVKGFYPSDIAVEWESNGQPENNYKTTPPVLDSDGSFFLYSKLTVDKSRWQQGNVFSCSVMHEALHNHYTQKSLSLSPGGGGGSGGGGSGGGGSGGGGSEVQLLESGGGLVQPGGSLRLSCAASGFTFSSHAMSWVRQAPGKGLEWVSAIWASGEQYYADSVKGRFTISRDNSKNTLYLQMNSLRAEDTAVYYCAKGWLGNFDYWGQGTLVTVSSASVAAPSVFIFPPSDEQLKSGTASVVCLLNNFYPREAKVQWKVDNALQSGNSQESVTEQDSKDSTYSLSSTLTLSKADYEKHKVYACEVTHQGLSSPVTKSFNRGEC
light 1: DIQMTQSPSTLSASVGDRVTITCRASQSISSWLAWYQQKPGKAPKLLIYDASSLESGVPSRFSGSGSGTEFTLTISSLQPDDFATYYCQQYSSQPYTFGQGTKVEIKRTVAAPSVFIFPPSDEQLKSGTASVVCLLNNFYPREAKVQWKVDNALQSGNSQESVTEQDSKDSTYSLSSTLTLSKADYEKHKVYACEVTHQGLSSPVTKSFNRGEC
light 2: EIVLTQSPGTLSLSPGERATLSCRASQSVSRSYLAWYQQKPGQAPRLLIIGASTRATGIPDRFSGSGSGTDFTLTISRLEPEDFAVYYCQQGQVIPPTFGQGTKVEIKSSASTKGPSVFPLAPSSKSTSGGTAALGCLVKDYFPEPVTVSWNSGALTSGVHTFPAVLQSSGLYSLSSVVTVPSSSLGTQTYICNVNHKPSNTKVDKKVEPKSCD
notes: also called 2+2 (49B4/28H1); bispecific bivalent 2+2 construct 49B4

EC50 of NFκB/luciferase activation, 4-1BB reporter HeLa with NIH/3T3-huFAP clone 19 [9]: 0.1 nM
EC50 of NFκB/luciferase activation, 4-1BB reporter HeLa with WM-266-4 [9]: 0.3 nM
B9: 4-1BB(25G7)/FAP(4B9) 2+1 (bispecific antibody, human IgG1, lambda, L234A L235A)
heavy 1: not shown
heavy 2: not shown
light: SSELTQDPAVSVALGQTVRITCQGDSLRSYYASWYQQKPGQAPVLVIYGKNNRPSGIPDRFSGSSSGNTASLTITGAQAEDEADYYCNSLDRRGMWVFGGGTKLTVLGQPKAAPSVTLFPPSSEELQANKATLVCLISDFYPGAVTVAWKADSSPVKAGVETTTPSKQSNNKYAASSYLSLTPEQWKSHRSYSCQVTHEGSTVEKTVAPTECS

EC50 [11]: 9.37 nM
B10: 1G4/FAP P329GLALA IgG1 2+2 (bispecific antibody)
heavy: not shown
light 1: not shown
light 2: EIVLTQSPGTLSLSPGERATLSCRASQSVSRSYLAWYQQKPGQAPRLLIIGASTRATGIPDRFSGSGSGTDFTLTISRLEPEDFAVYYCQQGQVIPPTFGQGTKVEIKSSASTKGPSVFPLAPSSKSTSGGTAALGCLVKDYFPEPVTVSWNSGALTSGVHTFPAVLQSSGLYSLSSVVTVPSSSLGTQTYICNVNHKPSNTKVDKKVEPKSCD
notes: also called 1G4 FAP 2+2

EC50 of increase of IFNγ secretion in activated CD8+ T cells (surface-immobilized IgG) [1]: 0.06 nM
binding result [2]: no binding
EC50 [3]: 0.97 nM
EC50 [4]: 1.04 nM
Kd [5]: 24 nM
koff [5]: 0.00077 s⁻¹
kon [5]: 31000 M⁻¹ s⁻¹
EC50 [6]: 1.46 nM
Kd [7]: 36 nM
koff [7]: 0.0012 s⁻¹
kon [7]: 32000 M⁻¹ s⁻¹
B11: 11D5 P329GLALA IgG1 (antibody, V domains shown)
VH: QVQLVQSGAEVKKPGSSVKVSCKASGGTFSSYAISWVRQAPGQGLEWMGGIIPIFGTANYAQKFQGRVTITADKSTSTAYMELSSLRSEDTAVYYCARSTLIYGYFDYWGQGTTVTVSS
VL: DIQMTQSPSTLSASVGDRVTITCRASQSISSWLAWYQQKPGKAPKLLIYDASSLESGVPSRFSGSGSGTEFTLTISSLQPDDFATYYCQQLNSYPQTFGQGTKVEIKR
notes: anti-4-1BB; also called 11D5 IgG
